One substance from US20220226381A1 can be followed below.

Assay [1] concerns the target CD19 on CD19+ Raji B cells (UniProt P15391). Description: cell-based or functional assay.
The target is the same in assay [2]. The assay is described as follows: cell-based or functional assay. This is another data set of the same source.

Read-outs that look alike come from different tables or passages of the source.

Sequence of UniProt P15391 (P15391 20-556 limits assumed): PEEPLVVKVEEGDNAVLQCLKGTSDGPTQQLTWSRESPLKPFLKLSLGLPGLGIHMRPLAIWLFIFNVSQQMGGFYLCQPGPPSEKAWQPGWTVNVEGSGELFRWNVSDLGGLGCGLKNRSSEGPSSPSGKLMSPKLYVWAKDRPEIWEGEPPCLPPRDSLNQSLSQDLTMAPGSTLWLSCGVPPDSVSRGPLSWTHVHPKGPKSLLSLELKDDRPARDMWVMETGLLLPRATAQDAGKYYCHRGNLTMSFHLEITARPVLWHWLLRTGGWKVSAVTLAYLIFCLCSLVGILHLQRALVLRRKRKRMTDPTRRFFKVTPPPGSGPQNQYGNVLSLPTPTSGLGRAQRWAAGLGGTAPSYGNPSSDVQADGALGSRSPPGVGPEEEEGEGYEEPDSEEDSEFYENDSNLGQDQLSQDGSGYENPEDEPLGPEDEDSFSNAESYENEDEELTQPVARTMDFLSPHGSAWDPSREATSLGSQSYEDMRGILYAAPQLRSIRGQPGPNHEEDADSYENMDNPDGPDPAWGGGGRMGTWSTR

For “anti-CD19 CAR (anti-CD19 CAR cassette as described in WO 2012/079000), expressed on transduced CD4+ T-cells”, the values for the change in activated cells in the population (CD25 and CD69 staining, flow cytometry, 24 h co-culture) in assay [1] and in assay [2] were 0.9 to 84.8% and 3.9 to 12.1%, respectively.
